{"source": "paper PMC8745601", "about": "(International Journal of Molecular Sciences, 2021)", "molecules": {"B1": {"name": "OCT3 (Homo sapiens) (protein)", "chain": "MPSFDEALQRVGEFGRFQRRVFLLLCLTGVTFAFLFVGVVFLGTQPDHYWCRGPSAAALAERCGWSPEEEWNRTAPASRGPEPPERRGRCQRYLLEAANDSASATSALSCADPLAAFPNRSAPLVPCRGGWRYAQAHSTIVSEFDLVCVNAWMLDLTQAILNLGFLTGAFTLGYAADRYGRIVIYLLSCLGVGVTGVVVAFAPNFPVFVIFRFLQGVFGKGTWMTCYVIVTEIVGSKQRRIVGIVIQMFFTLGIIILPGIAYFIPNWQGIQLAITLPSFLFLLYYWVVPESPRWLITRKKGDKALQILRRIAKCNGKYLSSNYSEITVTDEEVSNPSFLDLVRTPQMRKCTLILMFAWFTSAVVYQGLVMRLGIIGGNLYIDFFISGVVELPGALLILLTIERLGRRLPFAASNIVAGVACLVTAFLPEGIAWLRTTVATLGRLGITMAFEIVYLVNSELYPTTLRNFGVSLCSGLCDFGGIIAPFLLFRLAAVWLELPLIIFGILASICGGLVMLLPETKGIALPETVDDVEKLGSPHSCKCGRNKKTPVSRSHL"}, "B2": {"name": "OCT2 (Homo sapiens) (protein)", "chain": "MPTTVDDVLEHGGEFHFFQKQMFFLLALLSATFAPIYVGIVFLGFTPDHRCRSPGVAELSLRCGWSPAEELNYTVPGPGPAGEASPRQCRRYEVDWNQSTFDCVDPLASLDTNRSRLPLGPCRDGWVYETPGSSIVTEFNLVCANSWMLDLFQSSVNVGFFIGSMSIGYIADRFGRKLCLLTTVLINAAAGVLMAISPTYTWMLIFRLIQGLVSKAGWLIGYILITEFVGRRYRRTVGIFYQVAYTVGLLVLAGVAYALPHWRWLQFTVSLPNFFFLLYYWCIPESPRWLISQNKNAEAMRIIKHIAKKNGKSLPASLQRLRLEEETGKKLNPSFLDLVRTPQIRKHTMILMYNWFTSSVLYQGLIMHMGLAGDNIYLDFFYSALVEFPAAFMIILTIDRIGRRYPWAASNMVAGAACLASVFIPGDLQWLKIIISCLGRMGITMAYEIVCLVNAELYPTFIRNLGVHICSSMCDIGGIITPFLVYRLTNIWLELPLMVFGVLGLVAGGLVLLLPETKGKALPETIEEAENMQRPRKNKEKMIYLQVQKLDIPLN"}, "B3": {"name": "OCT1 (Homo sapiens) (protein)", "chain": "MPTVDDILEQVGESGWFQKQAFLILCLLSAAFAPICVGIVFLGFTPDHHCQSPGVAELSQRCGWSPAEELNYTVPGLGPAGEAFLGQCRRYEVDWNQSALSCVDPLASLATNRSHLPLGPCQDGWVYDTPGSSIVTEFNLVCADSWKLDLFQSCLNAGFLFGSLGVGYFADRFGRKLCLLGTVLVNAVSGVLMAFSPNYMSMLLFRLLQGLVSKGNWMAGYTLITEFVGSGSRRTVAIMYQMAFTVGLVALTGLAYALPHWRWLQLAVSLPTFLFLLYYWCVPESPRWLLSQKRNTEAIKIMDHIAQKNGKLPPADLKMLSLEEDVTEKLSPSFADLFRTPRLRKRTFILMYLWFTDSVLYQGLILHMGATSGNLYLDFLYSALVEIPGAFIALITIDRVGRIYPMAMSNLLAGAACLVMIFISPDLHWLNIIIMCVGRMGITIAIQMICLVNAELYPTFVRNLGVMVCSSLCDIGGIITPFIVFRLREVWQALPLILFAVLGLLAAGVTLLLPETKGVALPETMKDAENLGRKAKPKENTIYLKVQTSEPSGT"}}, "key": {"[1]": {"test_system": "breast cancer cell lines MCF-7, MDA-MB-231, ZR-75-1", "test": "Resazurin cell viability assay in breast cancer cell lines", "settings": "100 µM MPP+, 100 µmol/L doxorubicin, 72 h", "procedure": "Resazurin-Assay: To determine cell viability, cells were seeded at a density of 10,000 cells/well in 96-well multiplates. […] Afterward, 100 µL from each well was placed in a cavity of a 96-well plate, and the fluorescence was determined on a microplate reader (TECAN infinite M200, Tecan GmbH, Crailsheim, Germany) at an excitation wavelength of 530 nm and an emission wavelength of 590 nm."}, "P-gp": {"target": "T1, P-gp (Homo sapiens, UniProt P08183)", "T1 construct": "expressed in transfected cells; host or cells: MDCKII", "T1 sequence (P08183 whole entry)": "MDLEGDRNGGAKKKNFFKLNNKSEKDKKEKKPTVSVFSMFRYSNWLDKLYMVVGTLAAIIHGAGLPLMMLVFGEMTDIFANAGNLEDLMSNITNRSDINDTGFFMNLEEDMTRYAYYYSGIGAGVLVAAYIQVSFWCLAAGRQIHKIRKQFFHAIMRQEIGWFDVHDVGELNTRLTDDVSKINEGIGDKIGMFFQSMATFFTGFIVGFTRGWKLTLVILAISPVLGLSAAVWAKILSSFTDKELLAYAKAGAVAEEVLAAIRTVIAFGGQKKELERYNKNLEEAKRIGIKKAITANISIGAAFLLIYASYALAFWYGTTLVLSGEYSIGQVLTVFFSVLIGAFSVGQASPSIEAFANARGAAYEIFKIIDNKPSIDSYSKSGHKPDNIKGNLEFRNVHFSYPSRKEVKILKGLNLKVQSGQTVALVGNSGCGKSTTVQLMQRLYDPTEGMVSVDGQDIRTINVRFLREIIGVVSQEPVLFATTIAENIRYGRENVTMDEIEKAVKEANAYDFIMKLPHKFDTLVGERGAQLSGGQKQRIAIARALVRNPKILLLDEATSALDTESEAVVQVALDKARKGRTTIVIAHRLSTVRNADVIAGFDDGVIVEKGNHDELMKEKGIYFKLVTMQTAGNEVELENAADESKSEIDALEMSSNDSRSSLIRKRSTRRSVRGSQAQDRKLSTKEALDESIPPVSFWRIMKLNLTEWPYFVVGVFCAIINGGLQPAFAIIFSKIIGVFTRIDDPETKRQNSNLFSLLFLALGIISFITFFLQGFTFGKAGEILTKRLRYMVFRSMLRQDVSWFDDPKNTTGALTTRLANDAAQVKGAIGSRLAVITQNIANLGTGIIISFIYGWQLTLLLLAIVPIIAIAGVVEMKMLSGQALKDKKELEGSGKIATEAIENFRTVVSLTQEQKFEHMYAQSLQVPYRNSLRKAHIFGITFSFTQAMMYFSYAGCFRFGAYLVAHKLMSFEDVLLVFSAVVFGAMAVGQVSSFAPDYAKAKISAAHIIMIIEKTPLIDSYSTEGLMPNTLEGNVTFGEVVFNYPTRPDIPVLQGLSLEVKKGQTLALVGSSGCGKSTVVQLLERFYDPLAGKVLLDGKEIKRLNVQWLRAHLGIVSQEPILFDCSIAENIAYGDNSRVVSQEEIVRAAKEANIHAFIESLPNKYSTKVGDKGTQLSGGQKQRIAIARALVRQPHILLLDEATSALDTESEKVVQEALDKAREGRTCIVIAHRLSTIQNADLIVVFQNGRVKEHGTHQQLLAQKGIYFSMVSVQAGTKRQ", "test": "Transwell assay, MDCKII cells stably expressing P-gp", "assay_type": "cell-based", "settings": "PSC833 10 µmol/L; 100 µmol/L doxorubicin", "procedure": "In brief, MDCKII cells stably expressing P-gp or BCRP were seeded on 0.4 µm Transwell® membrane inserts (200.000 cells/insert; Ø6.5 mm, growth area 0.33 cm2) and allowed to differentiate for five days. The integrity of the monolayer was confirmed by monitoring the trans-epithelial electrical resistance (TEER) using the EVOMX system (WPI, Sarasota, FL, USA). […] Every 30 min, the incubation buffer was removed from the receiver compartment and replaced by a freshly preheated buffer for a total time of 2.5 h."}, "[2]": {"substrate": "COc1cccc2c1C(=O)c1c(O)c3c(c(O)c1C2=O)C[C@@](O)(C(=O)CO)C[C@@H]3O[C@H]1C[C@H](N)[C@H](O)[C@H](C)O1", "test": "cells, lysate or membranes", "settings": "other: MDCKII-OCT3; doxorubicin 0–100 µmol/L; 3 min; mean ± SD; 37.0 °C"}, "[3]": {"substrate": "COc1cccc2c1C(=O)c1c(O)c3c(c(O)c1C2=O)C[C@@](O)(C(=O)CO)C[C@@H]3O[C@H]1C[C@H](N)[C@H](O)[C@H](C)O1"}}, "note": "Read-outs that look alike come from different tables or passages of the source.", "data": [{"molecule": "C[n+]1ccc(-c2ccccc2)cc1", "note": "[MPP+]", "values": [{"measurement": "effect of inhibitor on cytotoxic effects of doxorubicin", "setting": "[1]", "value": "significantly attenuated"}]}, {"molecule": "C/C=C/C[C@@H](C)C(=O)[C@H]1C(=O)N[C@@H](C(C)C)C(=O)N(C)CC(=O)N(C)[C@@H](CC(C)C)C(=O)N[C@@H](C(C)C)C(=O)N(C)[C@@H](CC(C)C)C(=O)N[C@@H](C)C(=O)N[C@H](C)C(=O)N(C)[C@@H](CC(C)C)C(=O)N(C)[C@@H](CC(C)C)C(=O)N(C)[C@@H](C(C)C)C(=O)N1C", "note": "[PSC833]", "values": [{"measurement": "effect of inhibitor on P-gp-mediated vectorial transport of doxorubicin", "setting": "P-gp", "value": "markedly reduced"}]}, {"molecule": "B1", "values": [{"measurement": "Km", "setting": "[2]", "value": "13.0 ± 10.7", "unit": "µM"}]}, {"molecule": "B2", "values": [{"measurement": "Km", "setting": "[3]", "value": "76.1 ± 42.8", "unit": "µM"}]}, {"molecule": "B3", "values": [{"measurement": "Km", "setting": "[3]", "value": "4.66 ± 3.43", "unit": "µM"}]}]}
